Literature values in article PMC4017372.

Columns and labels:
[1] = target: HypB (Helicobacter pylori) (UniProt O25560)
[2] = target: UreE (Helicobacter pylori) (UniProt B5Z672); experiment: ITC
UniProt B5Z672, sequence (B5Z672 whole entry): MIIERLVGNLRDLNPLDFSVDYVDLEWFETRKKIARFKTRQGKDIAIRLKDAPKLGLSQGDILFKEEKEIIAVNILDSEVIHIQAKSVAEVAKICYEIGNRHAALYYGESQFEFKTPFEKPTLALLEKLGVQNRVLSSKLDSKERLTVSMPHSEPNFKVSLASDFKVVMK

UniProt O25560, sequence (O25560 whole entry): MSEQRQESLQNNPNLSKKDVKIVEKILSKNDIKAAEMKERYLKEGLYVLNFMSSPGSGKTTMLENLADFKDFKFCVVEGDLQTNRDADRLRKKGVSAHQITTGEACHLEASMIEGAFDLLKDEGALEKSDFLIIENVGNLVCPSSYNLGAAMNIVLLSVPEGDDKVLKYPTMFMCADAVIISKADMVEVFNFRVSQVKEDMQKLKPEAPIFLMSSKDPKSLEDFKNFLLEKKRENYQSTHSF

Substance | Kd [1] [µM] | Kd [2] [µM]
HypA (from UniProt P0A0U5) | 52 | 
UreG (from UniProt B6JPH1) |  | 4
